# Test results as given in patent US20040077547A1, “FVIIa antagonists” (Genentech, Inc., priority 1999, published 2004).
# Where no end group is shown, it is not given here.
# B1: TF53 peptide-phage (polyvalent phage clone from Pool A bearing SAEWEVLCWTWEGCGSVGLV) (peptide)
# peptide: SAEWEVLCWTWEGCGSVGLV
# modifications: cysteine pairing not given here; also: displayed on phage as a coat-protein fusion
# Columns and labels:
# [1] = target: T1, TF-FVIIa (Homo sapiens, UniProt P08709); experiment: FX Activation Assay; format: biochemical; details: compared with SEQ ID NO: 4
# T1 construct: proteolysis of FVII to FVIIa at a site (Arg152-Ile153 for human FVII (hFVII))
# Method: FX Activation Assay—Activation of FX by TF-FVIIa was monitored at room temperature as a function of peptide concentration. Each assay sample contained 100 μl of 460 pM relipidated TF1-243 (Kelley, R. F., et al. Blood 89:3219-3227 (1997)) and 30 pM FVIIa in HBS/Ca buffer (20 mM HEPES, pH 7.4, 5 mM CaCl2, 150 mM NaCl, 0.1% PEG 8000); after 20 min, 25 μl of peptide diluted in HBS/Ca Buffer was added. Following a 30 min incubation the reaction was initiated by the addition of 25 μl of 1 μM FX in HBS/Ca (Note: this yields a final concentration of 306 pM TFPC, 20 pM FVIIa, and 166 nM FX). For kinetic analysis, the final concentration of FX was varied from between 20 and 500 nM. Aliquots of 25 μl were removed at 1, 3, 5, 7 and 9 min and quenched in 25 μl of 50 mM EDTA. The FXa generated in each aliquot could be measured by the addition of 100 μl of 250 μM Spectrozyme fXa (American Diagnostica), 50 mM Tris, pH 8, 50 mM NaCl, 0.0025% Triton X-100. The rate of FXa generated at each peptide concentration was proportional to the initial slope of the absorbance at 405 nm vs. time. Sigmoidal curves were fit to a four-parameter equation by nonlinear regression analysis (Marquardt, J. Soc. Indust. Appl. Math. 11:431-441 (1963)); the concentration of each peptide required to give a half-maximal signal in the assay was calculated from the curves and is referred to as the IC50 value.
# [2] = target: T2, recombinant human FVIIa (Homo sapiens, UniProt P08709); experiment: FVIIa Binding ELISA (competition with TF183b); details: for affinity for FVIIa: compared with SEQ ID NO: 4
# T2 construct: proteolysis of FVII to FVIIa at a site (Arg152-Ile153 for human FVII (hFVII))
# T2 sequence (P08709 61-212 limits assumed): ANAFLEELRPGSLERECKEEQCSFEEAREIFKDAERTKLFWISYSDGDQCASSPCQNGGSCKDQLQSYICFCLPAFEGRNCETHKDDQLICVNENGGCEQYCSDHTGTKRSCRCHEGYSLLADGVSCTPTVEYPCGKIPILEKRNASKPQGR
# T2 sequence (P08709 213-466 limits assumed): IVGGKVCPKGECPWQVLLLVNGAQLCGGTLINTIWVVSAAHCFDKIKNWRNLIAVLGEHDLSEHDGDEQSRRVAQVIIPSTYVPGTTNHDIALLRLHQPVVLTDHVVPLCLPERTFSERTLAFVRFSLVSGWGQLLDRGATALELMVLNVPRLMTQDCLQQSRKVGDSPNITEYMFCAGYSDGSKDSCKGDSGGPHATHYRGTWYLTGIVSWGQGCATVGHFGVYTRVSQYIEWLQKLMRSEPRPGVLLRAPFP
# Method: FVIIa Binding ELISA—The ability of peptides to compete with biotinylated TF183 (TF183b) (or other peptides described herein that could be biotinylated as described) for binding to FVIIa was monitored using a FVIIa Binding ELISA or a TF-FVIIa Binding ELISA. Microtiter plates were coated overnight with 2 μg/ml recombinant human FVIIa or 2 μg/ml TF1-243 (Paborsky, L. R., et al., J. Biol. Chem. 266: 21911 (1991)) in 50 mM ammonium bicarbonate pH 9 at 4° C.; all other steps were performed at room temperature. Plates were then blocked with 1% BSA in Assay Buffer (50 mM HEPES, pH 7.2, 5 mM CaCl2, 150 mM NaCl). For the TF-FVIIa ELISA, recombinant human FVIIa (2 μg/ml) in 1% BSA in Assay Buffer was added for 30 min to the wells previously coated and blocked with TF to form the TF-FVIIa complex. Dilutions of peptide in Assay Buffer plus 0.05% Tween 20 were added to the microtiter plate along with 5 nM TF183b for 1 h. The microtiter plate was washed 3 times with Assay Buffer plus 0.05% Tween 20 and the biotinylated-peptide bound was detected with a Streptavidin/HRP conjugate (Streptavidin-POD, Roche Molecular Biochemicals). The amount of HRP bound was measured using ABTS/H2O2 substrate (Kirkegaard and Perry Laboratories) and monitoring the absorbance at 405 nm. The absorbance at 405 nm was plotted versus the concentration of peptide originally added to the well. Sigmoidal curves were fit to a four-parameter equation by nonlinear regression analysis (Marquardt, J. Soc. Indust. Appl. Math. 11:431-441 (1963); the concentration of each peptide required to give a half-maximal signal in the assay was calculated from the curves and is referred to as the IC50 value.
# [3] = target: T2, recombinant human FVIIa; experiment: Peptide-phage binding to immobilized FVIIa; details: polyvalent phage display
# Method: (§1) Selection Conditions—TF1-243 (Paborsky, L. R., et al., J. Biol. Chem. 266: 21911 (1991)) or recombinant human FVIIa (2 μg/ml each) were immobilized directly to Maxisorp plates (Nunc) in 50 mM ammonium bicarbonate, pH 9.3 by incubating overnight at 4° C. Wells were blocked using Sorting Buffer (50 mM HEPES, pH 7.2, 5 mM CaCl2, 5 mM MgCl2, 150 mM NaCl, 1% BSA) for 1 h at 25° C. Recombinant human FVIIa (2 μg/ml) in Sorting Buffer was added for 30 min to wells previously coated and blocked with TF to form the TF-FVIIa complex. Phage from the libraries described above were pooled into 3 groups. Pool A contained XiCXjCXk where j=5-7; Pool B contained X4CX2GPX4CX4, X20 and XiCXjCXk where j=4; Pool E contained XiCXjCXk where j=8-10. Phage from each pool were incubated with the immobilized targets in Sorting Buffer for 3 h at 25° C.; generally about 5×10^10 phage were added at the beginning of each round. Unbound phage were removed by repetitive washing with Wash Buffer (50 mM HEPES, pH 7.2, 150 mM NaCl, 0.005% Tween 20); remaining phage were eluted with 500 mM KCl, 10 mM HCl, pH 2. The eluted phage were then propagated in XL1-Blue cells with VCSM13 helper phage (Stratagene) overnight at 37° C. Enrichment could be monitored by titering the number of phage which bound to a target coated well compare to a well coated with BSA. […]
# [4] = target: T3, TF-FVIIa complex (Homo sapiens, UniProt P08709); experiment: Peptide-phage binding to immobilized TF-FVIIa
# T3 construct: proteolysis of FVII to FVIIa at a site (Arg152-Ile153 for human FVII (hFVII))
# Method: as §1
# [5] = target: T4, TF (Homo sapiens, UniProt P13726); experiment: Peptide-phage binding to wells coated with TF; details: polyvalent phage display; also BSA-coated wells
# T4 construct: TF1-243 for membrane tissue factor composed of the extracellular domain and transmembrane amino acid residues 1-243
# Method: as §1
# [6] = target: T5, BSA (bovine, UniProt P02769 25-607); experiment: phage binding to coated wells
# T5 construct: Control coat
# T5 sequence (P02769 25-607 limits assumed): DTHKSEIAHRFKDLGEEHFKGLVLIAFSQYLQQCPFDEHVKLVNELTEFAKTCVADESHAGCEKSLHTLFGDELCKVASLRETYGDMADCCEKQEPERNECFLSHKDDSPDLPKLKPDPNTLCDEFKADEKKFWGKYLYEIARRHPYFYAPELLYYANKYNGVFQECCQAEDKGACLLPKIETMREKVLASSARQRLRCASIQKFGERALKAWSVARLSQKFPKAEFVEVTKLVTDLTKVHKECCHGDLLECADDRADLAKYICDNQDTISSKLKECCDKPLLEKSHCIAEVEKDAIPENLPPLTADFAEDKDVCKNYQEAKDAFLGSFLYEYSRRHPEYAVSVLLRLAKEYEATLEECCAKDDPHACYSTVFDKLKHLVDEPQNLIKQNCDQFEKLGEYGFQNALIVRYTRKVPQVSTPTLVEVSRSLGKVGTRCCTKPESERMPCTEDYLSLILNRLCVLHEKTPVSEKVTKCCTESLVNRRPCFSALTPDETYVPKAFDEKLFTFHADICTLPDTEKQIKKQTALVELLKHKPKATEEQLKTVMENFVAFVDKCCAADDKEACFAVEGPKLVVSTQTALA
# T1 sequence (P13726 33-275 partner limits assumed, one chain of several): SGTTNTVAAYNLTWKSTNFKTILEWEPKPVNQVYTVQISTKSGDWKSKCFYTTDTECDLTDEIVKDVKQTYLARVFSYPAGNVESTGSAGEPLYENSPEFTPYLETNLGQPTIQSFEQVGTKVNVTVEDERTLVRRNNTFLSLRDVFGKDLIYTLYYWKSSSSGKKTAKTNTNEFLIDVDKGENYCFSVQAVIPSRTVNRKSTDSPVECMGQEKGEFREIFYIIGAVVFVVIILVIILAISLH
# T3 sequence (P13726 33-275 partner limits assumed, one chain of several): as above
# T4 sequence (P13726 33-275): as the sequence (P13726 33-275 partner limits assumed, one chain of several) above
molecule,measurement,setting,value
TF100Z: TF100 peptide fused to the Z consensus domain of protein A (EEWEVLCWTWETCERGEGGGGSGG),ability to inhibit FX activation,[1],increased ability to inhibit FX activation
same,affinity for FVIIa,[2],improved affinity
SAEWEVLCWTWEGCGSVGLV [TF53],binding of phage bearing the sequence to immobilized FVIIa,[3],bound specifically
same,binding to covalently and noncovalently active site blocked TF-FVIIa,[4]; active site alkylated with biotinylated EGR chloromethylketone or blocked by TF7I-C,bound
same,binding of phage bearing the sequence to immobilized TF-FVIIa,[4]; polyvalent phage display,bound specifically
same,binding of phage bearing the sequence to wells coated with TF,[5],did not bind
EEWEVLCWTWETCERGEG [TF100],ability to inhibit FX activation,[1],increased ability to inhibit FX activation
same,affinity for FVIIa,[2],improved affinity
EEWEVLCWTWETCER [TF183],IC50 for FVIIa,"[2]; compared with TF65 (SEQ ID NO: 4), values in FIG. 4, not given",decreased IC50
B1,binding result,[6],no binding
